From US20260200990A1, “MODIFIED LONG PEPTIDES SUITABLE FOR USE IN IMMUNISATION” (ISABELLA PHARMA B.V., priority 2022, published 2026)
Ends that are not written are not given here.

What was measured:
[1] = Stability of cysteine and cystine-containing peptides in 20% v/v DMSO in WFI (UPLC-UV-MS purity); format: physicochemical; conditions: room temperature
Procedure: To examine the effect on stability of a peptide that contains cysteine(s) (non-oxidized, C) or cystine(s) (oxidized, C (C)) in a formulation matrix (20% v/v DMSO in WFI (water for injection), four non-oxidized (SEQ ID NO: 1, 2, 3 and 4) and their oxidized, cystine-containing, peptides were manufactured and individually examined in 20% v/v DMSO (aq.)
Each peptide (2.0 mg) was dissolved in 2.0 ml of 0.09% TFA in H2O: acetonitrile (1:1, v/v). Aliquots of 200 μL were transferred to a 1 mL amber vial and then freeze dried overnight. An aliquot (0.2 mg) was then redissolved in 20% v/v DMSO in WFI (1 mL). After swirling for 2 minutes, a sample was analyzed by UPLC-UV-MS. The remainder of the sample was stored at room temperature and analyzed at different time intervals (1 h, 2 h, 3 h, 4 h). The identity and purity of the purified peptides were then determined by UPLC-UV-MS on a Waters Acquity UPLC/TQD system using an C18 Waters Acquity BEH130 analytical column (1.7 μm particle size, 2.1×150 mm, flow 0.4 mL/min) with a linear gradient (5% B to 95% B, linear gradient in 10 min). The absorbance was measured at 220 nm.
MassLynx v4.1 was used to integrate the individual peaks of the chromatogram in the region of the observed peptide-derived signals. The following ApexTrack peak detection parameters were used for integration: peak-to-peak baseline noise was set at automatic, peak width at 5% height was set at automatic, baseline start threshold of 0.05% and baseline end threshold of 0.05%. The detect shoulder function was turned on. The following response thresholds were set: relative height of 0.20 and relative area of 0.10. After the peak of the desired peptide was identified by MS, the corresponding integral of the peak in the UV chromatogram is reported in Table 2 as percentage of the total integrated peaks, purity (% a/a).
Purity of the non-oxidized and oxidized peptide composition over time was evaluated over 4 h. Additional mass adducts, consistent with the formation of intermolecular or intramolecular disulfide bonds, increased over time in all spectra of cysteine-containing peptides compared to cystine-containing peptides. The purity of the non-oxidized peptides set forth in SEQ ID NO: 1, 3 and 4 declined from >90% a/a at to less than 80% a/a with the lowest stability observed for SEQ ID NO: 1 with a purity of 64% a/a after 4 h. For the cystine-containing peptide analogs, the purity remained >90% a/a after 4 h.

[2] = Stability of peptide mixtures under long term and accelerated storage (UPLC); format: physicochemical; conditions: peptide in mixture of 6 peptides
Procedure: To examine the effect on stability of peptides that contain cystine (oxidized, C (C)) present in a mixture of 6 peptides, two examples of mixtures of both non-cysteine-containing (NCC1-6) and cystine-containing (SEQ ID NO: 1-6) peptides were assessed. Typical chromatograms of the two mixtures are depicted in FIG. 2. Both mixtures were placed on two different storage conditions, ‘long term storage condition’ (i.e. −20±5° C.) and ‘accelerated storage condition’ (i.e. 5±3° C.).
The purity, the level of impurities, and the quantification per peptide of both mixtures are determined by reversed phase rapid UPLC using a mobile phase gradient of ACN/IPA and water with TFA, and UV detection at λ=220 nm. The method quantifies main peaks and impurities in mixtures of peptides. The reporting threshold for the method is 0.10% a/a.
Both mixtures of six peptides were stored under the two conditions described and by using the analytical method as described. The stability was monitored. The quantity of each of the peptides present in the mix (assay values), the purity, and the individual impurities were measured at several timepoints over a period of 3 months. […] Furthermore, focussing on the individual impurities it is shown that no significant degradation has taken place as all levels remain constant and no new impurities have formed.

[3] = test system: T cells cultured from PBMC from healthy donors; test: T cell induction by PRAME-based SLPs, IFNy ELISpot (test 1 and test 2); parameters: species or system human; key to ELISPOT IFNy / ELISPOT IFNy, summary of the results in the table: − (negative); + (positive); When at least one donor had a positive response, this is denoted as POS; conditions: 2 peptide pools
Procedure: The capacity of human-PRAME-based SLPs to activate T cells was studied. The biological activity of the synthesized and purified SLPs was tested using PBMC from healthy donors. Monocytes were isolated using anti-CD14 beads by magnet activated cell sorting (MACS) following the protocol of the supplier (Miltenyi Biotec). In short, PBMCs were isolated by centrifugation over a Ficoll gradient and cryopreserved. To generate dendritic cells (DCs), approximately […] thawed PBMC were used for the isolation of CD14 positive cells. The cells were cultured for three days at 37° C. in 2 ml/well of IMDM 4% human serum (HS) containing 800 U/ml GM-CSF and 500 U/ml IL-4 (Peprotech). After 3 days 1 mL/well of IMDM 4% HS with GM-CSF (2400 U/mL) and IL-4 (1500 U/mL) was added to the monocytes-derived DCs and these adhered cells were cultured for an additional 3 days. On day 6, long peptides distributed over 2 pools were added to monocyte-derived DCs of naive donors at a 13 μM concentration and incubated overnight at 37° C. The next day (day 7) peptide-loaded DCs were harvested, irradiated (1000 rad), washed and mixed in a 1:10 ratio with autologous PBMC in IMDM 8% human serum in the presence of IL-7 (10 ng/ml) and IL-12p70 (100 μg/mL).
On day 10 new DCs were generated and loaded, after 6 days, with SLPs on day 16 as described above. The next day, these peptide-loaded DCs were harvested, irradiated (1000 rad) and washed. Also the cultured T cells were harvested. Both were counted and mixed in a 1:10 ratio (DC:T) in IMDM 8% human serum in the presence of IL-7 (10 ng/ml) and IL-12p70 (100 μg/mL) for the first restimulation. On the same day, new DCs were generated as described above that were loaded with SLPs on day 23 as described above. The next day, peptide-loaded DCs were harvested, irradiated (1000 rad) and washed. Also the cultured and restimulated T cells were harvested. Both were counted and mixed in a 1:10 ratio (DC:T) in IMDM 8% human serum in the presence of IL-7 (10 ng/ml) and IL-12p70 (100 μg/mL) for the second restimulation.
On this day 24, also test 1 was started in which DCs loaded with individual SLPs were cultured with harvested T cells from restimulation 1. For test 1, DCs and harvested T cells were cultured in a 1:10 ratio for 2 days after which cells were transferred to a coated ELISpot plate (see description below). On day 24, new DCs were generated as described above that were loaded with SLPs on day 30 as described above. The next day, peptide-loaded DCs were harvested, irradiated (1000 rad) and washed. Also the cultured twice restimulated T cells were harvested. Both were counted and mixed in a 1:10 ratio (DC:T) in IMDM 8% human serum in the presence of IL-2 (30 IU/mL) and IL-12p70 (100 μg/mL) for the third restimulation.
On day 31, also test 2 was started in which DCs loaded with individual SLPs were cultured with harvested T cells from restimulation 2. For test 2, DCs and harvested T cells were cultured in a 1:10 ratio for 2 days after which cells were transferred to a coated ELISpot plate (see description below).
The T cell cultures were restimulated three times in 1-week cycles using peptide loaded autologous moDCs. After the 2nd and 3rd restimulation, reactivity towards single SLPs was tested (test 1 and test 2, respectively). Reactivity was determined by measuring IFNy production using ELISpot.
For ELISpot analysis, multiscreen plates were coated with an IFNy coating antibody overnight at 4° C. The next day, the plate was washed 4× with PBS and blocking was done using IMDM 8% HS at 37° C. for at least one hour. Each sample was tested in triplicate. As a positive control, phytoheamagglutinin (PHA, 1 μg/mL) was added to cells that were not stimulated with SLP after thawing. The plate was cultured overnight at 37° C. Thereafter, cells were discarded and the plate was washed using PBS/0.05% Tween-20. The IFNy detection antibody was diluted and added to each well and incubated for 2 hours at room temperature. […]

Sequence | Purity (% a/a) ([1]; Time 0 h) | Purity (% a/a) ([1]; Time 1 h) | Purity (% a/a) ([1]; Time 2 h) | Purity (% a/a) ([1]; Time 3 h) | Purity (% a/a) ([1]; Time 4 h) | Assay (net peptide content) (mg/vial) ([2]; Initial) | Assay (net peptide content) (mg/vial) ([2]; Storage at 5 ± 3° C., T1M) | Assay (net peptide content) (mg/vial) ([2]; Storage at 5 ± 3° C., T2M) | Assay (net peptide content) (mg/vial) ([2]; Storage at 5 ± 3° C., T3M) | Assay (net peptide content) (mg/vial) ([2]; Storage at −20 ± 5° C., T2M) | Assay (net peptide content) (mg/vial) ([2]; Storage at −20 ± 5° C., T3M) | also measured
AARLCCQLDPARDVLCLRPVGAESR [Cysteine (C) containing SEQ ID NO: 4, reference compound] | 96.51 % a/a | 90.72 % a/a | 83.13 % a/a | 77.16 % a/a | 72.13 % a/a |  |  |  |  |  |  | 
AARLCCQLDPARDVLCLRPVGAESR [Cystine(C(C)) containing SEQ ID NO: 4] | 93.50 % a/a | 94.26 % a/a | 93.58 % a/a | 93.16 % a/a | 92.89 % a/a | 0.21 mg/vial | 0.20 mg/vial | 0.21 mg/vial | 0.21 mg/vial | 0.20 mg/vial | 0.21 mg/vial | 
HLSLRGLPVCAFSSAGPCALRFTSA [Cysteine (C) containing SEQ ID NO: 1, reference compound] | 95.01 % a/a | 86.88 % a/a | 78.20 % a/a | 70.34 % a/a | 64.12 % a/a |  |  |  |  |  |  | 
LSAMSTTDLEAYFKDCLFKDWEELG [SEQ ID 2] |  |  |  |  |  | 0.24 mg/vial | 0.24 mg/vial | 0.25 mg/vial | 0.25 mg/vial | 0.25 mg/vial | 0.25 mg/vial | 
VLSRKYTSFPWLLGCTANWILRGTSFVYVPSALNPA [Cysteine (C) containing SEQ ID NO: 3, HBV Pol fragment, unmodified cysteine comparator, reference compound] | 97.66 % a/a | 93.48 % a/a | 87.94 % a/a | 84.12 % a/a | 79.81 % a/a |  |  |  |  |  |  | 
VVNHYFQTRHYLHTLWKAGILYKRETTRSASFCGSPYSW (VVNHYFQTRHYLHTLWKAGILYKRETTRSASFC(Cys)GSPYSW) [SEQ ID 5, HBV Pol fragment SLP with cysteinylated cysteine] |  |  |  |  |  | 0.20 mg/vial | 0.20 mg/vial | 0.21 mg/vial | 0.22 mg/vial | 0.20 mg/vial | 0.22 mg/vial | 
VWTSPRRLVELAGQSLLKDEALAIAALELLPRELF (listed as Homo sapiens) [SEQ ID NO: 42, PRAME-based SLP] |  |  |  |  |  |  |  |  |  |  |  | ELISPOT IFNy ([3]; donor BC290, Test 1): −; ELISPOT IFNy ([3]; donor BC290, Test 2): −; ELISPOT IFNy ([3]; donor BC298, Test 1): +; ELISPOT IFNy ([3]; donor BC298, Test 2): +; ELISPOT IFNy ([3]; donor BC305, Test 1): −; ELISPOT IFNy ([3]; donor BC305, Test 2): −; ELISPOT IFNy ([3]; donor BC306, Test 1): −; ELISPOT IFNy ([3]; donor BC306, Test 2): −; ELISPOT IFNy ([3]; donor BC312, Test 1): −; ELISPOT IFNy ([3]; donor BC312, Test 2): −; ELISPOT IFNy ([3]; donor BC315, Test 1): −; ELISPOT IFNy ([3]; donor BC315, Test 2): −; ELISPOT IFNy ([3]; donor BC321, Test 1): +; ELISPOT IFNy ([3]; donor BC321, Test 2): −
YPALMPLYACIQAKQAFTFSPTYKAFLSKQYMNLYPVAR (cysteinylated cysteine) [SEQ ID 6, HBV Pol fragment SLP with cysteinylated cysteine] |  |  |  |  |  | 0.21 mg/vial | 0.20 mg/vial | 0.21 mg/vial | 0.22 mg/vial | 0.20 mg/vial | 0.22 mg/vial | 
